{"source": "patent US20180273621A1", "key": {"[1]": {"target": "Human FcγRIIIA (V158), recombinantly expressed extracellular domain (human) (UniProt P08637)", "sequence (P08637 17-208 F176V)": "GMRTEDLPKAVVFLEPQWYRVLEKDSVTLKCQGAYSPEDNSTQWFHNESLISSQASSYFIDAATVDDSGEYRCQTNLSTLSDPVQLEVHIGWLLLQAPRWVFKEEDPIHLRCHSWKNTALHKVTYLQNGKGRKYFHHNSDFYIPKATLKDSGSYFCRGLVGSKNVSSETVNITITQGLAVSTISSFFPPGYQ", "experiment": "BIAcore 3000, IgG immobilized, FcγR extracellular domain injected, equilibrium fit to a 1:1 binding isotherm"}, "[2]": {"target": "Human FcγRIIA, recombinantly expressed extracellular domain (human) (UniProt P12318)", "sequence (P12318 34-217)": "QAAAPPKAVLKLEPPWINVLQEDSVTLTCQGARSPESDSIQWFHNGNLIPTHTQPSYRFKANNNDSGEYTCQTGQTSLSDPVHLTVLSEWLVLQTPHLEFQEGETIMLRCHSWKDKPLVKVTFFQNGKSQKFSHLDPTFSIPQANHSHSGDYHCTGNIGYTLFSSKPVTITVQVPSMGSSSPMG", "experiment": "BIAcore 3000, IgG immobilized, FcγR extracellular domain injected, equilibrium fit to a 1:1 binding isotherm"}, "[3]": {"target": "Human FcγRIIB, recombinantly expressed extracellular domain (human) (UniProt P31994)", "sequence (P31994 43-217)": "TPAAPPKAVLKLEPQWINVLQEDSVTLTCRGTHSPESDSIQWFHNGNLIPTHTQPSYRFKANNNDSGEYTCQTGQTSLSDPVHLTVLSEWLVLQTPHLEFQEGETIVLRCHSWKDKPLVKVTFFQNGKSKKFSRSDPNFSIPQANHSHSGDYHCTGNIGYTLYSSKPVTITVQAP", "experiment": "BIAcore 3000, IgG immobilized, FcγR extracellular domain injected, equilibrium fit to a 1:1 binding isotherm"}, "[4]": {"target": "Mouse FcγRIIB, recombinantly expressed extracellular domain (mouse) (UniProt P08101)", "sequence (P08101 30-210)": "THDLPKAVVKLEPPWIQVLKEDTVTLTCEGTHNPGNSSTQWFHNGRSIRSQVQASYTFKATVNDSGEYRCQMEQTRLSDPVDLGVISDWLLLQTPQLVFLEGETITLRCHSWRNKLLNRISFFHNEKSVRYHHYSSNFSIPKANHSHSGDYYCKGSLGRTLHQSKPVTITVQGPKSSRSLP", "experiment": "BIAcore 3000, IgG immobilized, FcγR extracellular domain injected, equilibrium fit to a 1:1 binding isotherm"}, "[5]": {"target": "Mouse FcγRIII, recombinantly expressed extracellular domain (mouse) (UniProt P08508)", "sequence (P08508 31-215)": "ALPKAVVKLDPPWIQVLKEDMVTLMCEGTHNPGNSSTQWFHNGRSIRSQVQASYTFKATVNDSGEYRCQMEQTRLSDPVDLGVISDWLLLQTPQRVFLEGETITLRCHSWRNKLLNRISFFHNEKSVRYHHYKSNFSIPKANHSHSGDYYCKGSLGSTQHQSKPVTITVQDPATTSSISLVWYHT", "experiment": "BIAcore 3000, IgG immobilized, FcγR extracellular domain injected, equilibrium fit to a 1:1 binding isotherm"}, "[6]": {"target": "Human FcγRI, recombinantly expressed extracellular domain (human) (UniProt P12314)", "sequence (P12314 16-292)": "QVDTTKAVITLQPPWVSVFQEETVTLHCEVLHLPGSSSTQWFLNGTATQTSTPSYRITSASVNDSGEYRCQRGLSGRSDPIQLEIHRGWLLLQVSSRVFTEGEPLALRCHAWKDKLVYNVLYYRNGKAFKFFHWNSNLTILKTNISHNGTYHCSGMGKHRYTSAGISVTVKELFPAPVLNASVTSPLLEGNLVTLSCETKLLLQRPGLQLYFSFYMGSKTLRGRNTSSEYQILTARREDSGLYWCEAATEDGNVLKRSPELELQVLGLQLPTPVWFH", "experiment": "BIAcore 3000, IgG immobilized, FcγR extracellular domain injected, equilibrium fit to a 1:1 binding isotherm; Fc variant 16C4-235Y"}, "[7]": {"target": "Mouse FcγRIV, recombinantly expressed extracellular domain (mouse)", "sequence (A0A0B4 entry or part of it limits assumed)": "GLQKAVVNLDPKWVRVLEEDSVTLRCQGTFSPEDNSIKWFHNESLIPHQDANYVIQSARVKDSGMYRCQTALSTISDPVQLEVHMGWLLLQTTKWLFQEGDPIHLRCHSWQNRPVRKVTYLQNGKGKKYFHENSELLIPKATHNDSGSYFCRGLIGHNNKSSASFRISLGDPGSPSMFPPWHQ", "experiment": "BIAcore 3000, IgG immobilized, FcγR extracellular domain injected, equilibrium fit to a 1:1 binding isotherm"}, "[8]": {"target": "Human FcγRI, recombinantly expressed extracellular domain (human) (UniProt P12314)", "experiment": "BIAcore 3000, IgG immobilized, FcγR extracellular domain injected, equilibrium fit to a 1:1 binding isotherm; 16C4, parent Fc (no Fc substitution)"}, "[9]": {"target": "Human FcγRI, recombinantly expressed extracellular domain (human) (UniProt P12314)", "experiment": "BIAcore 3000, IgG immobilized, FcγR extracellular domain injected, equilibrium fit to a 1:1 binding isotherm; Fc variant 16C4-235F"}}, "data": [{"substance": "16C4 Fc variant antibody comprising the L234F/L235Y/P331S amino acid substitutions", "values": [{"measurement": "Kd", "setting": "[1]", "value": 5.14, "unit": "µM"}, {"measurement": "Kd", "setting": "[2]", "value": 6.98, "unit": "µM"}, {"measurement": "Kd", "setting": "[3]", "value": 17.1, "unit": "µM"}, {"measurement": "Kd", "setting": "[4]", "value": 2.67, "unit": "µM"}, {"measurement": "Kd", "setting": "[5]", "value": 9.24, "unit": "µM"}, {"measurement": "Kd", "setting": "[6]", "value": 8.65, "unit": "µM"}]}, {"substance": "16C4 affinity matured anti-CD19 IgG antibody", "values": [{"measurement": "Kd", "setting": "[1]", "value": 0.574, "unit": "µM"}, {"measurement": "Kd", "setting": "[3]", "value": 14.5, "unit": "µM"}, {"measurement": "Kd", "setting": "[7]", "value": 0.329, "unit": "µM"}, {"measurement": "Kd", "setting": "[4]", "value": 1.47, "unit": "µM"}, {"measurement": "Kd", "setting": "[5]", "value": 6.36, "unit": "µM"}, {"measurement": "Kd", "setting": "[8]", "value": 0.019, "unit": "µM"}]}, {"substance": "16C4 Fc variant antibody comprising the L234F/L235F/P331S amino acid substitutions", "values": [{"measurement": "Kd", "setting": "[1]", "value": 4.61, "unit": "µM"}, {"measurement": "Kd", "setting": "[2]", "value": 6.36, "unit": "µM"}, {"measurement": "Kd", "setting": "[3]", "value": 6.81, "unit": "µM"}, {"measurement": "Kd", "setting": "[7]", "value": 11.1, "unit": "µM"}, {"measurement": "Kd", "setting": "[4]", "value": 2.82, "unit": "µM"}, {"measurement": "Kd", "setting": "[5]", "value": 10.9, "unit": "µM"}, {"measurement": "Kd", "setting": "[9]", "value": 1.53, "unit": "µM"}]}]}
